Results published in patent US9526786B2, “Thermostabilization of proteins” (The Trustee of Columbia University in the City of New York, priority 2007, dated 2016).

B1: T172R/G173Q: CocE double mutant (protein, listed as Rhodococcus sp.)
chain: MVDGNYSVASNVMVPMRDGVRLAVDLYRPDADGPVPVLLVRNPYDKFDVFAWSTQSTNWLEFVRDGYAVVIQDTRGLFASEGEFVPHVDDEADAEDTLSWILEQAWCDGNVGMFGVSYLGVTQWQAAVSGVGGLKAIAPSMASADLYRAPWYGPGGALSVEALLGWSALIGRQLITSRSDARPEDAADFVQLAAILNDVAGAASVTPLAEQPLLGRLIPWVIDQVVDHPDNDESWQSISLFERLGGLATPALITAGWYDGFVGESLRTFVAVKDNADARLVVGPWSHSNLTGRNADRKFGIAATYPIQEATTMHKAFFDRHLRGETDALAGVPKVRLFVMGIDEWRDETDWPLPDTAYTPFYLGGSGAANTSTGGGTLSTSISGTESADTYLYDPADPVPSLGGTLLFHNGDNGPADQRPIHDRDDVLCYSTEVLTDPVEVTGTVSARLFVSSSAVDTDFTAKLVDVFPDGRAIALCDGIVRMRYRETLVNPTLIEAGEIYEVAIDMLATSNVFLPGHRIMVQVSSSNFPKYDRNSNTGGVIAREQLEEMCTAVNRIHRGPEHPSHIVLPIIKR
B2: L169K/G173Q: CocE double mutant, SEQ ID NO:1 with substitutions L169K and G173Q (protein, listed as Rhodococcus sp.)
chain: MVDGNYSVASNVMVPMRDGVRLAVDLYRPDADGPVPVLLVRNPYDKFDVFAWSTQSTNWLEFVRDGYAVVIQDTRGLFASEGEFVPHVDDEADAEDTLSWILEQAWCDGNVGMFGVSYLGVTQWQAAVSGVGGLKAIAPSMASADLYRAPWYGPGGALSVEALLGWSAKIGTQLITSRSDARPEDAADFVQLAAILNDVAGAASVTPLAEQPLLGRLIPWVIDQVVDHPDNDESWQSISLFERLGGLATPALITAGWYDGFVGESLRTFVAVKDNADARLVVGPWSHSNLTGRNADRKFGIAATYPIQEATTMHKAFFDRHLRGETDALAGVPKVRLFVMGIDEWRDETDWPLPDTAYTPFYLGGSGAANTSTGGGTLSTSISGTESADTYLYDPADPVPSLGGTLLFHNGDNGPADQRPIHDRDDVLCYSTEVLTDPVEVTGTVSARLFVSSSAVDTDFTAKLVDVFPDGRAIALCDGIVRMRYRETLVNPTLIEAGEIYEVAIDMLATSNVFLPGHRIMVQVSSSNFPKYDRNSNTGGVIAREQLEEMCTAVNRIHRGPEHPSHIVLPIIKR

Assays:
[1] = test system: cocaine-induced lethality; experiment: In vivo potency of protection against cocaine-induced lethality; set-up: species or system NIH-Swiss mice
[2] = test system: cocaine-induced lethality; experiment: In vivo duration of protection against cocaine-induced lethality; set-up: species or system NIH-Swiss mice
Procedure: In vivo protection against cocaine lethality. Male NIH-Swiss mice (25-32 g) were obtained from Harlan Inc. (Indianapolis, Ind.) and were housed in groups of 6 mice per cage. All mice were allowed ad libitum access to food and water, and were maintained on a 12-h light-dark cycle with lights on at 06.30 AM in a room kept at a temperature of 21-22° C. Experiments were performed in accordance with the Guide for the Care and Use of Laboratory Animals as adopted and promulgated by the National Institutes of Health. The experimental protocols were approved by the University Committee on the Use and Care of Animals at the University of Michigan.
Cocaine-induced toxicity was characterized by the occurrence of lethality, as defined by the cessation of observed movement and respiration. Mice were placed individually in Plexiglas observation chambers (16×28×20 cm high) to be habituated for 15 min before drug administration. Following intra-peritoneal (i.p.) cocaine administration, the mouse was immediately placed individually in the same chamber for observation. The presence or absence of lethality was recorded for 60 min following cocaine administration. The mouse was placed in a small restraint chamber (Outer tube diameter: 30 mm; Inner tube diameter: 24 mm) that left the tail exposed. The tail was cleansed with an alcohol wipe and a 30G1/2 precision glide needle (Fisher Scientific, Pittsburgh, Pa.) was inserted into one of the side veins for infusion. The i.v. injection volume of CocE or CocE mutant was 0.2 mL per mouse. Sterile gauze and pressure were applied to the injection site to staunch the bleeding.
Lethality was monitored following injection at 1, 5, 10, or 30 min, or 1, 2, 3, 4, 5 hours after enzyme administration. Each treatment used 8 mice to assess the percent of lethality (i.e., protection) in mice pretreated with a single dose of an esterase at a single time point.
These values were used to compare the degree of rightward shifts of cocaine's dose-response curve in the absence or presence of the enzyme pretreatment. In the time course study, a time point for duration of protection (i.e., 50% of lethality) was estimated by using each time course curve crossing 50% occurrence of lethality.
Evaluation of in vivo half life. CocE is administered IV to the tail vein in a volume of 0.2 ml. Animals are challenged with 180 mg/kg cocaine delivered intraperitoneally at a given time after CocE administration.

[3] = Michaelis-Menten kinetics of cocaine hydrolysis (absorbance at 240 nm); format: biochemical
Procedure: (§1) The initial rates (of decay) were determined by following the change in the intrinsic absorbance of cocaine at 240 nm (6700 M^1 cm^1)(Xie et al., 1999) using a SpectraMax Plus 384 UV plate reader (Molecular Devices, Sunnyvale, Calif.) using SOFTmax Pro software (Version 3.1.2). The reaction was initiated by adding 100 μL of a 2× enzyme solution (100 mM phosphate buffer, pH 7.4 and 300 mM NaCl) to 100 μL of a 2× cocaine solution (50 μg/mL enzyme, 100 mM Phosphate Buffer, pH 7.4 and 300 mM NaCl). All assays were performed with 100 μM DTT unless indicated otherwise. Final cocaine concentrations were as follows: 125, 62.5, 31.25, 15.63, 7.81, 3.91, 1.95, and 0.977 μM. Vmax and Km values were calculated using Prism (GraphPad Software, San Diego). For stability measurements, wild type and mutant enzymes were diluted to 2× concentration and incubated at 37° C. for the times indicated. At the end of each time point, an aliquot was removed and kinetic behavior was observed as outlined above.
(§2) In vitro kinetic assays. […] Initial rates were then used to determine Michaelis-Menten parameters. To assess thermal stability, enzyme preparations were preincubated at 37° C. for various lengths of time, prior to measurement of residual activities (Table 1 and FIG. 23).
Determination of Catalytic Efficiency. To determine the catalytic activity a spectrophometric assay was performed. Samples of L169K/G173Q CocE were added to a 96-well UV permeable plate containing increasing cocaine concentrations (0.5, 2.5, 5, 12.5, 25, 50, 100, and 150 μM) to give a final concentration of 10 ng/ml CocE in a final volume of 200 μl. The change in absorbance at 240 nm was measured over 20 minutes, with readings every 10 seconds, by a SpectraMax Plus 384 UV plate reader (Molecular Devices, Sunnyvale, Calif.) using SOFTmax Pro software (Version 3.1.2). The change in absorbance was converted to the change in concentration and furthermore the rate of decay per mole enzyme is determined (Kcat). Kcat and Km of the enzyme are determined using Prism (GraphPad software, San Diego).

[4] = Procedure: Analysis of CocE action on cocaine cleavage is performed by utilizing the spectroscopic properties of cocaine, which maximally absorbs light at a 240 nm wavelength. CocE activity is measured by monitoring for a decrease in signal at A240, using various concentrations of cocaine, and determining the initial rate of the decrease. From these values the Vmax of the enzyme can be determined. By pre-incubating the enzyme at 37° C. for various times before monitoring for activity, the half life of CocE at 37° C. can be calculated.
as §1, with “Final cocaine concentrations were as follows: 125, 62.5, 31.25, 15.63, 7.81, 3.91, 1.95, and 0.977 μM. Vmax and Km values were calculated using Prism (GraphPad Software, San Diego).” left out
as §2

[5] = 1 mg i.v., cocaine 180 mg/kg i.p.

| Molecule | protection against cocaine-induced lethality ([1]; i.v. pretreatment 1 min prior to i.p. cocaine) | LT50, pretreatment time to 50% lethality [2, 5] | LT50, pretreatment time to 50% lethality ([2]; 1 mg i.v., cocaine 180 mg/kg i.p., listed as T172R-G173Q) | extension of pretreatment duration with 50% protection ([2]; mouse, in vivo) | Kcat(mol · s^−1 · mol^−1) ([3]; cocaine) | Stability @ 37 (t1/2) [4] | half-life / τinact of activity at 37° C. [4] | t1/2 [4] | plateau of catalytic activity, percent of maximal ([4]; 37° C., after greater than 8 hr / t=10 hours) | extension of in vitro τinact at 37° C. ([4]; from 10 min) | lowest dose maintaining some degree of protection ([1]; i.v., cocaine i.p. 1 min later) | protection from increasing lethal doses of cocaine ([1]; i.v., cocaine i.p. 1 min later) | time for which 50% of mice were protected from death [2, 5] | turnover per molecule of enzyme [3] |
| --- | --- | --- | --- | --- | --- | --- | --- | --- | --- | --- | --- | --- | --- | --- |
| B1 | protected | up to 4.5 hr | ~4.5 h | greater than 20 fold | 2247 mol · s^−1 · mol^−1 | ~5.43 h | 5.43 h | 5.43 h | approximately 35% | approximately 27 fold |  |  |  |  |
| B2 |  |  |  |  |  |  |  |  |  |  | 0.01 mg | dose-dependently protected | up to 7.5 hrs | approximately 6000 molecules of cocaine per minute |
